This assay has as its target microtubules of purified bovine brain tubulin (bovine) (UniProt Q6B856). Kind of assay: optical trap rupture force assay; kinetochores held on beads by α-penta-His antibody; dynamic microtubules grown from coverslip-anchored GMPCPP seeds; force ramp 0.25 pN/s; 23 °C; BRB80.

Regarding “purified native S. cerevisiae kinetochores (from UniProt P40568 1-576) (complex)”, the median rupture force came out at 7.2 pN.
In turn, “purified native K. marxianus kinetochores (from UniProt A0ABX6F0Z3 1-547; A0ABX6F2N8 1-203; A0ABX6ES48 1-179; A0ABX6ET36 1-377) (complex)” returned a median rupture force of 7.5 pN.

The values above are taken from PMC11387133.
